This is an account of results in US20230381229A1.

For one experiment, the target named is CD28 (human). Put plainly: flow cytometry on HEK293 cells transfected with CD28. For orientation: In flow cytometry, cells or beads pass a laser one at a time.
The target in experiment [1] is CD80 expressed on cells (Homo sapiens). Put plainly: flow cytometry, cells expressing CD80.
The target in experiment [2] is PD-1 expressed on cells (human). Put plainly: flow cytometry, cells expressing PD-1.
Chain of PD-1 expressed on cells (human) (chain, as listed by the source): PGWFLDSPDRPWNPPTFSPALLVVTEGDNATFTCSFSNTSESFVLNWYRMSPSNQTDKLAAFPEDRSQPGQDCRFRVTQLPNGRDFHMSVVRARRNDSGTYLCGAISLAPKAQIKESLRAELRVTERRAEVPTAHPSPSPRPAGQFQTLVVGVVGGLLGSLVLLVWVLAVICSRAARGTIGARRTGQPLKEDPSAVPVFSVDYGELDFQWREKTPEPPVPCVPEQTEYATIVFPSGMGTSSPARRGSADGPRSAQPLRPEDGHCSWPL

B1: WT CD80 IgV/IgC-Fc (Fc fusion)
chain: VIHVTKEVKEVATLSCGHNVSVEELAQTRIYWQKEKKMVLTMMSGDMNIWPEYKNRTIFDITNNLSIVILALRPSDEGTYECVVLKYEKDAFKREHLAEVTLSVKADFPTPSISDFEIPTSNIRRIICSTSGGFPEPHLSWLENGEELNAINTTVSQDPETELYAVSSKLDFNMTTNHSFMCLIKYGHLRVNQTFNWNTTKQEHFPDN
B1 yielded an MFI at 66.6 nM with CD28 (human) of 3070.

B2: variant PD-L1 ECD-Fc K57R, S99G, L124S, K144Q (Fc fusion)
chain: FTVTVPKDLYVVEYGSNMTIECKFPVEKQLDLAALIVYWEMEDKNIIQFVHGEEDLRVQHSSYRQRARLLKDQLSLGNAALQITDVKLQDAGVYRCMIGYGGADYKRITVKVNAPYNKINQRISVVDPVTSEHELTCQAEGYPQAEVIWTSSDHQVLSGKTTTTNSKREEKLFNVTSTLRINTTTNEIFYCTFRRLDPEENHTAELVIPELPLAHPPNER
As to B2, the figures for the Fold Change Compared to WT PD-L1 in experiment [1] and in experiment [2] were 105 and 0.7, respectively.

B3: variant PD-L1 ECD-Fc N17D, M97L, S99G (Fc fusion)
chain: FTVTVPKDLYVVEYGSDMTIECKFPVEKQLDLAALIVYWEMEDKNIIQFVHGEEDLKVQHSSYRQRARLLKDQLSLGNAALQITDVKLQDAGVYRCLIGYGGADYKRITVKVNAPYNKINQRILVVDPVTSEHELTCQAEGYPKAEVIWTSSDHQVLSGKTTTTNSKREEKLFNVTSTLRINTTTNEIFYCTFRRLDPEENHTAELVIPELPLAHPPNER
Consider B3, for which the results for the Fold Change Compared to WT PD-L1 in experiment [1] and in experiment [2] were 547 and 3.2, respectively.

B4: variant PD-L1 ECD-Fc I36T, I83T, M97L, K144E, P198T (Fc fusion)
chain: FTVTVPKDLYVVEYGSNMTIECKFPVEKQLDLAALTVYWEMEDKNIIQFVHGEEDLKVQHSSYRQRARLLKDQLSLGNAALQTTDVKLQDAGVYRCLISYGGADYKRITVKVNAPYNKINQRILVVDPVTSEHELTCQAEGYPEAEVIWTSSDHQVLSGKTTTTNSKREEKLFNVTSTLRINTTTNEIFYCTFRRLDTEENHTAELVIPELPLAHPPNER
B4 showed an MFI at 20 nM in experiment [2] of 62.

B5: variant PD-L1 ECD-Fc I36T, M97L, Q155H, F193S, N201Y (Fc fusion)
chain: FTVTVPKDLYVVEYGSNMTIECKFPVEKQLDLAALTVYWEMEDKNIIQFVHGEEDLKVQHSSYRQRARLLKDQLSLGNAALQITDVKLQDAGVYRCLISYGGADYKRITVKVNAPYNKINQRILVVDPVTSEHELTCQAEGYPKAEVIWTSSDHHVLSGKTTTTNSKREEKLFNVTSTLRINTTTNEIFYCTSRRLDPEEYHTAELVIPELPLAHPPNER
Take B5: the Fold Change Compared to WT PD-L1 worked out at 9.3 in experiment [1] and 0 in experiment [2]. The MFI at 20 nM in experiment [1] stood at 1250; in experiment [2], 69.

B6: variant PD-L1 ECD-Fc Y10F, M18V, S99G, Q138R, T203A (Fc fusion)
chain: FTVTVPKDLFVVEYGSNVTIECKFPVEKQLDLAALIVYWEMEDKNIIQFVHGEEDLKVQHSSYRQRARLLKDQLSLGNAALQITDVKLQDAGVYRCMIGYGGADYKRITVKVNAPYNKINQRILVVDPVTSEHELTCRAEGYPKAEVIWTSSDHQVLSGKTTTTNSKREEKLFNVTSTLRINTTTNEIFYCTFRRLDPEENHAAELVIPELPLAHPPNER
In experiment [1], B6 came in with a Fold Change Compared to WT PD-L1 of 3.1 and an MFI at 20 nM of 412. In experiment [2], the Fold Change Compared to WT PD-L1 came to 0 and the MFI at 20 nM amounted to 70.

B7: variant PD-L1 ECD-Fc K57R, S99G, R195G (Fc fusion)
chain: FTVTVPKDLYVVEYGSNMTIECKFPVEKQLDLAALIVYWEMEDKNIIQFVHGEEDLRVQHSSYRQRARLLKDQLSLGNAALQITDVKLQDAGVYRCMIGYGGADYKRITVKVNAPYNKINQRILVVDPVTSEHELTCQAEGYPKAEVIWTSSDHQVLSGKTTTTNSKREEKLFNVTSTLRINTTTNEIFYCTFRGLDPEENHTAELVIPELPLAHPPNER
B7: in experiment [1], the Fold Change Compared to WT PD-L1 is 81.8 and the MFI at 20 nM is 11000. Besides, in experiment [2], the Fold Change Compared to WT PD-L1 came to 0.8.
